The values that follow come from patent US20210332360.

Common to all, as to assay: flow
The target of data set [1] is T1, DC-SIGN (DC-SIGNR/CD299) (Homo sapiens) (UniProt Q9H2X3).
T1 sequence: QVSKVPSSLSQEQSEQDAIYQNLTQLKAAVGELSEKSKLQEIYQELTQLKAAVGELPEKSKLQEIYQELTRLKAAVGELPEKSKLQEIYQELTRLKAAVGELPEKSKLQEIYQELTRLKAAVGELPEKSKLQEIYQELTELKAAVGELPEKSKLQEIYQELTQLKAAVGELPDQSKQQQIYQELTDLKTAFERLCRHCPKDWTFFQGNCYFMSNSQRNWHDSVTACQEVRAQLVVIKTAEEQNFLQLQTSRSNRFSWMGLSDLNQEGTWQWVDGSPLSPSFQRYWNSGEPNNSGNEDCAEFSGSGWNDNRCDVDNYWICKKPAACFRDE
The following applies: after the 5' primer region all dT replaced by 4 (alpha-D-mannose-triazole-modified C8-alkyne-dU); particle-displayed; SB with Mg, Ca, Mn.

Data set [2] has as its target T2, DC-SIGN (SIGNR1/CD209b) (Mus musculus) (UniProt Q8CJ91).
T2 sequence: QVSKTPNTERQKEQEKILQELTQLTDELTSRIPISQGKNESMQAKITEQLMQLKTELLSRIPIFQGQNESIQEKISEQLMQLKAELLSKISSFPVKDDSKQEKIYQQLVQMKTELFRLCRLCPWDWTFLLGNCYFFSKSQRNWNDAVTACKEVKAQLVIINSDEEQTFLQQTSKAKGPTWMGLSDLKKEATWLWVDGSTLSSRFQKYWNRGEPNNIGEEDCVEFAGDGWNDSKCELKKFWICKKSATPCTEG
Conditions: after the 5' primer region all dT replaced by 4 (alpha-D-mannose-triazole-modified C8-alkyne-dU); counter-target; 3.5-fold weaker than human.

Data set [3] deals with T3, Pisum sativum agglutinin (PSA) (Pisum sativum) (UniProt P02867+P02867).
T3 sequence 1: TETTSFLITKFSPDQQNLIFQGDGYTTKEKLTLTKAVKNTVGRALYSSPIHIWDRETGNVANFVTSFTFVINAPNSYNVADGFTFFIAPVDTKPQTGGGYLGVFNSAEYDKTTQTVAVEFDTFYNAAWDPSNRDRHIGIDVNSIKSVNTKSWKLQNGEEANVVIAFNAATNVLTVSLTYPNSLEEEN
T3 sequence 2: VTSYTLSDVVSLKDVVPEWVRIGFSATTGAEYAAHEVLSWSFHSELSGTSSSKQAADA
Conditions: counter-target.

Bounds are passed on as bounds.

What is called Kd is a measure of binding affinity in units of concentration. Low readings indicate a tighter complex, high ones a looser complex. Take “GATCCCAGTCCGAAGTAATCCAAGGGTAATTGGGAAATAAGGATGGGGTAATATGCAACCCTTGTGCAAACGGCTATAGG [D1]”: the equilibrium dissociation constant (Kd) was 3.6 nM in data set [1] and 12.5 nM in data set [2].
Turning to “GATCCCAGTCCGAAGTAATCGTTGCATCTGCACGACTGGTGAGCTTGAGTGGCAGAAGAACTTGTGCAAACGGCTATAGG [3-1]”, in data set [3] (after the 5' primer region (GATCCCAGTCCGAAGTAATC, natural) all dT replaced by 4 (alpha-D-mannose-triazole-modified C8-alkyne-dU) and all dC by 2 (5-formyl-dC)), the Kd is more than 1000 nM.
In data set [3] (after the 5' primer region all dT replaced by 4 (alpha-D-mannose-triazole-modified C8-alkyne-dU), natural dC), “GATCCCAGTCCGAAGTAATCGTTGCATCTGCACGACTGGTGAGCTTGAGTGGCAGAAGAACTTGTGCAAACGGCTATAGG [3-1m]” yielded a Kd of more than 1000 nM.
